Laboratory results from the RNAGym collection of RNA variant scans (doi:10.7554/elife.80360).

B1: HDV Ribozyme (parent)
chain: GGCCGGCAUGGUCCCAGCCUCCUCGCUGGCGCCGGCUGGGCAACAUUCCGAGGGGACCGUCCCCUCGGUAAUGGCGAAUGGGACCCA

Variants of: B1
Experiment: self-cleavage, relative activity (ratio to wild type); higher = more cleavage; co-transcriptional

Compared with G53A C58A, C13U U20C is lower in self-cleavage: 0.962 for the first, 0.0978 for the second.

Compared with A56U C86A, U20G G50U is lower in self-cleavage: 1.01 for the first, 0.18 for the second.

Compared with G1U A45U, U27A G31A is higher in self-cleavage: 0.441 for the first, 0.743 for the second.

Compared with A16U C66A, G55U C63G is lower in self-cleavage: 0.831 for the first, 0.695 for the second.

First: C4A G34C
Second: G53A G59U
The self-cleavage of the first is lower: 0.261 for the first, 0.862 for the second.

Going from G35C G38C to U23C A42C, the self-cleavage rises from 0.128 to 0.161.

Going from G40C G55C to C36U G59U, the self-cleavage rises from 0.347 to 0.806.

Compared with C13A C24G, A56U U60G is higher in self-cleavage: 0.117 for the first, 1.07 for the second.

First: G39C U60C
Second: A71C C75U
The self-cleavage of the first is higher: 0.415 for the first, 0.199 for the second.

Compared with G25U A43U, G53C G55A is higher in self-cleavage: 0.0707 for the first, 0.898 for the second.

First: C19U C26G
Second: C21U C44U
The self-cleavage of the first is lower: 0.356 for the first, 0.62 for the second.

Going from C41U A83U to C41A U46G, the self-cleavage falls from 0.583 to 0.554.

Going from A45U C64U to G35A A87C, the self-cleavage falls from 0.764 to 0.444.

Going from U23C G81U to G2A U69G, the self-cleavage falls from 0.499 to 0.219.

Compared with G2U C32A, C32G U65G is higher in self-cleavage: 0.0302 for the first, 0.119 for the second.

First: G2C G11A
Second: U23C A83U
The self-cleavage of the first is lower: 0.0455 for the first, 0.767 for the second.

First: G53A G80U
Second: G55A A77G
The self-cleavage of the first is lower: 0.234 for the first, 0.991 for the second.

Compared with U72A G81U, A16G C75U is higher in self-cleavage: 0.166 for the first, 0.178 for the second.

First: G25C G34U
Second: A8G C15A
The self-cleavage of the first is lower: 0 for the first, 0.554 for the second.

Compared with C7U C58G, C36A C84A is lower in self-cleavage: 1.02 for the first, 0.192 for the second.

First: C32A C58G
Second: U20C G28C
The self-cleavage of the first is lower: 0 for the first, 0.0755 for the second.

Going from C75A C84G to G82C C85A, the self-cleavage rises from 0.0707 to 0.147.

Going from C32A U69G to G54C G82C, the self-cleavage rises from 0.271 to 0.397.

First: C22U C66A
Second: C7G G29U
The self-cleavage of the first is higher: 0.758 for the first, 0 for the second.

Compared with C13U C41A, U9G C33A is lower in self-cleavage: 0.522 for the first, 0.293 for the second.

Compared with C4G C30A, A8U G59C is higher in self-cleavage: 0.0601 for the first, 1.02 for the second.

First: G17C G50C
Second: C33G C85A
The self-cleavage of the first is higher: 0.324 for the first, 0.175 for the second.

Going from G29U C36G to C13G G81U, the self-cleavage falls from 0.201 to 0.0475.

Going from C49G G55U to G55C U72C, the self-cleavage falls from 0.844 to 0.798.

Going from C3A G80U to G34C U79G, the self-cleavage falls from 0.0893 to 0.0615.

Going from C57A G81C to U9C A43U, the self-cleavage rises from 0.181 to 0.378.

Going from U23G G25A to G53A A77C, the self-cleavage rises from 0.142 to 0.251.

Compared with A8U U27C, C14A C36G is lower in self-cleavage: 0.196 for the first, 0.107 for the second.

Compared with C19A C58U, A43G A78C is lower in self-cleavage: 0.168 for the first, 0.0415 for the second.

Compared with G11A G17C, C64G U79C is higher in self-cleavage: 0.113 for the first, 0.623 for the second.

Going from C18U G38C to C18U C66U, the self-cleavage rises from 0.0297 to 0.801.

Compared with C24A G25A, A8C C44A is higher in self-cleavage: 0.102 for the first, 0.222 for the second.

Compared with A56C C64A, G11A C84A is lower in self-cleavage: 0.911 for the first, 0.787 for the second.

Going from G28U G54U to C18G U46G, the self-cleavage falls from 0.0712 to 0.0692.

Going from G2U C22A to C33A A45C, the self-cleavage rises from 0.035 to 0.133.

Compared with C36A C62A, C32G C48U is lower in self-cleavage: 0.261 for the first, 0.0449 for the second.

Variant C22U U47C has a self-cleavage of 0.424.
